Results on four substances are retold here after PMC3256231.

pKd: −log10 of the molar value. Some results are limits rather than exact numbers.

Assay [1] deals with human collagen IV (immobilized, SPR) (human) (UniProt P02462). Put plainly: SPR; human collagen IV immobilised (400 RU); recombinant M proteins injected for 2 min at 60 µl/min; apparent constants, Langmuir model for 1:1 interactions (BiaEvaluation 3.0).
Assay [2] concerns the target M protein M3.22 (Streptococcus pyogenes). Description: radioligand binding; 250 µl of streptococci (10^8 bacteria per ml in PBS with 0.05% Tween 20), before and after hyaluronidase treatment, incubated 45 min with 30 ng (100,000 cpm) of 125I-labelled collagen IV; washed, radioactivity of the pellet counted; cut-off 20% bound ligand.
In assay [3] the target is M protein stG120.1 (Streptococcus dysgalactiae subsp. equisimilis). Described as above.

The pKd is the negative decadic logarithm of the Kd, by convention in mol/L. For “recombinant M protein M31.5 (natural protein)”, the pKd in assay [1] is 9.22.

For “125I-labelled collagen IV (from human placenta, Sigma-Aldrich) (from UniProt P02462 173-1669; P08572 184-1712) (complex)”, the percent of the added collagen IV bound (% of the added collagen IV) in assay [2] was more than 20. Moreover, in assay [3], the percent bound ligand (% bound ligand) was determined as 56. For the substance “recombinant M protein M55 (from UniProt Q54840 1-550) (natural protein)”, in assay [1], the pKd was 8.30.

For “recombinant M protein stG2078 (natural protein)”, the SPR response in assay [1] was less than 4 RU.
